Reference: patent publication US20210009982

Molecular target: T1, mini cellulose-binding protein A (mCbpA), P38058
T1 chain: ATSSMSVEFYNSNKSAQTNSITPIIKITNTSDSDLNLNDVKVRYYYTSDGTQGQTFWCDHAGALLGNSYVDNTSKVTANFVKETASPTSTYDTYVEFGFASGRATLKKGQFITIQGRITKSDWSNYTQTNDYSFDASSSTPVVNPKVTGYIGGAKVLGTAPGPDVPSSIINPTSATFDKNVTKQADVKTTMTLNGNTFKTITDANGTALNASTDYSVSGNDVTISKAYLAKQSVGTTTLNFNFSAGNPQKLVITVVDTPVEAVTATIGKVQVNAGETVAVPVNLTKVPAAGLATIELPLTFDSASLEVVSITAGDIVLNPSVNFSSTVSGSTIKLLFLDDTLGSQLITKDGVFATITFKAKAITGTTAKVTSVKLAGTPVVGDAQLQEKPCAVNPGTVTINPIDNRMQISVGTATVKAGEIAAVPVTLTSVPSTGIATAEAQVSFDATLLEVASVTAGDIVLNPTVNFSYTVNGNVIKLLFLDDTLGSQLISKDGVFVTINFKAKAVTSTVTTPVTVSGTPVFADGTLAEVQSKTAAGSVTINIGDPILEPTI

B1: arabinose isomerase (LsAraA) linked with the dockerin module of the endo-β-1,4-glucanase B gene (protein)
chain: SLSARVSFKKHVKKGVFIMLNTENYEFWFVTGSQSLYGEETLRSVEKDAKEIVEKLNASRQLPYPIVFKLVATTADNITKVMKEANYNDHVAGVITWMHTFSPAKNWIRGTKLLQKPLLHLATQFLNKIPYDTIDFDYMNLNQSAHGDREYAFINARLRKNNKIISGYWGDEDVQKAMAKWMDVAVAYNESFKIKVVTFADKMRNVAVTDGDKVEAQIKFGWTVDYWGVGDLVAEVNAVSEADIDAKYADLQKEYDFVEGQNTPEKFEHNVKYQIREYFGLKKFMDDRGYTAFTTNFEDLVGLEQLPGLAAQLLMAEGYGFAGEGDWKTAALDRLLKIMAHNEKTVFMEDYTLDLRQGHEAILGSHMLEVDPSIASDKPRVEVHPLDIGDKDDPARLVFTGMQGDAVDVTMADYGDEFKLMSYDVRGNKPEADTPHLPVAKQLWTPKQGLREGAVGWLTVGGGHHTVLSFAVDSEQLQDLSHLFDLTYVNIKTQTQTSYSLGDVNKDGKVNAIDYAVLKSILLGTNTNVDLSVSDMNKDGKVNALDLAVLKKMLLS
  tagatose conversion activity using galactose as a substrate: the degradation activity was increased in the order of mCbpA (M), arabinose isomerase (LsAraA, L) and arabinose isomerase-mCbpA (LM)
